The text below walks through data of the Human Domainome abundance scans (Beltran et al. 2025).

B1: Zinc finger MYM-type protein 3, residues 405 to 444; numbered along this chain, Q14202 (parent)
chain: DATRCSICQKTGEVLHEVSNGSVVHRLCSDSCFSKFRANK

± gives the uncertainty stated by the source.

The variants in this data set derive from B1. The data set can be described thus: abundance fitness (aPCA) (normalised: wild type 0, dead -1); higher = more abundant; growth selection in yeast, the domain comes from the species named. The following applies: Homo sapiens.
On to DATRCSICQKTGEVLHEVSNGSVVHRLCSDSCTSKFRANK, for which the abundance fitness was -0.072 ± 0.065.

For DATRCSICQKTGEVLHEVSNGSVVHRLCSDSCASKFRANK, the abundance fitness came to 0.134 ± 0.055.

DATRCSICQKTGEVLHEVSNGSVVHRLCSDSCESKFRANK: the abundance fitness was 0.175 ± 0.077.

Regarding DATRCSICQKTGEVLHEVSNGSVVHRLCSDSCGSKFRANK, the abundance fitness is -0.044 ± 0.05.

In the case of DATRCSICQKTGEVLHEVSNGSVVHRLCSDSCKSKFRANK, the abundance fitness came to 0.03 ± 0.067.

For DATRCSICQKTGEVLHEVSNGSVVHRLCSDSCDSKFRANK, the abundance fitness was -0.016 ± 0.081.

In the case of DATRCSICQKTGEVLHEVSNGSVVHRLCSDSCRSKFRANK, the abundance fitness was determined as 0.106 ± 0.051.

Regarding DATRCSICQKTGEVLHEVSNGSVVHRLCSDSCYSKFRANK, the abundance fitness was -0.094 ± 0.1.

Regarding DATRCSICQKTGEVLHEVSNGSVVHRLCSDSCNSKFRANK, the abundance fitness was determined as 0.01 ± 0.15.

On to DATRCSICQKTGEVLHEVSNGSVVHRLCSDSCMSKFRANK, for which the abundance fitness worked out at 0.187 ± 0.065.

On to DATRCSICQKTGEVLHEVSNGSVVHRLCSDQCFSKFRANK, for which the abundance fitness was determined as 0.042 ± 0.075.

As to DATRCSICQKTGEVLHEVSNGSVVHRLCSDTCFSKFRANK, the abundance fitness stood at 0.027 ± 0.082.

Take DATRCSICQKTGEVLHEVSNGSVVHRLCSDWCFSKFRANK: the abundance fitness was -0.218 ± 0.066.

As to DATRCSICQKTGEVLHEVSNGSVVHRLCSDRCFSKFRANK, the abundance fitness turned out to be 0.047 ± 0.053.

In the case of DATRCSICQKTGEVLHEVSNGSVVHRLCSDVCFSKFRANK, the abundance fitness was -0.032 ± 0.056.

Turning to DATRCSICQKTGEVLHEVSNGSVVHRLCSDPCFSKFRANK, the abundance fitness was -0.025 ± 0.072.

As for DATRCSICQKTGEVLHEVSNGSVVHRLCSDSCFSKFVANK, the abundance fitness is -0.23 ± 0.057.

Regarding DATRCSICQKTGEVLHEVSNGSVVHRLCSDSCFSKFNANK, the abundance fitness stood at 0.135 ± 0.11.

Regarding DATRCSICQKTGEVLHEVSNGSVVHRLCSDSCFSKFAANK, the abundance fitness is -0.003 ± 0.056.

In the case of DATRCSICQKTGEVLHEVSNGSVVHRLCSDSCFSKFLANK, the abundance fitness is -0.304 ± 0.058.

As for DATRCSICQKTGEVLHEVSNGSVVHRLCSDSCFSKFCANK, the abundance fitness was -0.093 ± 0.071.

Consider DATRCSICQKTGEVLHEVSNGSVVHRLCSDSCFSKFKANK, for which the abundance fitness was determined as 0.199 ± 0.067.

Take DATRCSICQKTGEVLHEVSNGSVVHRLCSDSCFSKFPANK: the abundance fitness was -0.18 ± 0.079.

With DATRCSICQKTGEVLHEVSNGSVVHRLCSDSCFSKFWANK, the abundance fitness is -0.288 ± 0.07.

In the case of DATRCSICQKTGEVLHEVSNGSVVHRLCSDSCFSKFTANK, the abundance fitness is 0.043 ± 0.064.

Regarding DATRCSICQKTGEVLHEVSNGSVVHRLCSDSCFSKFIANK, the abundance fitness was -0.512 ± 0.13.

In the case of DATRCSICQKTGEVLHEVSNGSVVHRLCSDSCFSKFQANK, the abundance fitness was 0.106 ± 0.069.

For DATRCSICQKTGEVLHEVSNGSVVHRLCSDSCFSKFSANK, the abundance fitness was found to be 0.048 ± 0.057.

As for DATRCSICQKTGEVLHEVSNGSVVHRLCSDSCFSKFHANK, the abundance fitness is 0.137 ± 0.086.

As for DATRCSICQKTGEVLHEVSNGSVVHRLCSDSCFSKFEANK, the abundance fitness came to 0.395 ± 0.061.

Regarding DATRCSICQKTGEVLHEVSNGSVVHRLCSDSCFSKFFANK, the abundance fitness is -0.506 ± 0.088.

For DATRCSICQKTGEVLHEVSNGSVVHRLCSDSCFSKFYANK, the abundance fitness was -0.283 ± 0.15.

DATRCSICQKTGEVLHEVSNGSVVHRLCSDSCFSKFDANK: the abundance fitness is 0.143 ± 0.08.

As to DATRCSICQKTGEVLHEVSNGSVVHRLCSDSCFSKIRANK, the abundance fitness is -0.061 ± 0.072.

For the variant DATRCSICQKTGEVLHEVSNGSVVHRLCSDSCFSKWRANK, the abundance fitness amounted to 0.147 ± 0.057.

Regarding DATRCSICQKTGEVLHEVSNGSVVHRLCSDSCFSKERANK, the abundance fitness came to 0.029 ± 0.063.

On to DATRCSICQKTGEVLHEVSNGSVVHRLCSDSCFSKMRANK, for which the abundance fitness is -0.296 ± 0.39.

With DATRCSICQKTGEVLHEVSNGSVVHRLCSDSCFSKTRANK, the abundance fitness was -0.176 ± 0.07.

As for DATRCSICQKTGEVLHEVSNGSVVHRLCSDSCFSKKRANK, the abundance fitness is -0.426 ± 0.1.

As for DATRCSICQKTGEVLHEVSNGSVVHRLCSDSCFSKDRANK, the abundance fitness is -0.082 ± 0.084.

Take DATRCSICQKTGEVLHEVSNGSVVHRLCSDSCFSKSRANK: the abundance fitness was -0.178 ± 0.064.

For the variant DATRCSICQKTGEVLHEVSNGSVVHRLCSDSCFSKHRANK, the abundance fitness is -0.053 ± 0.1.

For the variant DATRCSICQKTGEVLHEVSNGSVVHRLCSDSCFSKARANK, the abundance fitness was 0.042 ± 0.056.

On to DATRCSICQKTGEVLHEVSNGSVVHRLCSDSCFSKVRANK, for which the abundance fitness is -0.085 ± 0.066.

As to DATRCSICQKTGEVLHEVSNGSVVHRLCSDSCFSKQRANK, the abundance fitness was 0.002 ± 0.074.

For DATRCSICQKTGEVLHEVSNGSVVHRLCSDSCFSKGRANK, the abundance fitness is -0.206 ± 0.051.

For the variant DATRCSICQKTGEVLHEVSNGSVVHRLCSDSCFSKRRANK, the abundance fitness is -0.236 ± 0.054.

Turning to DATRCSICQKTGEVLHEVSNGSVVHRLCSDSCFSKNRANK, the abundance fitness was -0.772 ± 0.14.

For the variant DATRCSICQKTGEVLHEVSNGSVVHRLCSDSCFSKYRANK, the abundance fitness is -0.22 ± 0.089.

Consider DATRCSICQKTGEVLHEVSNGSVVHRLCSDSSFSKFRANK, for which the abundance fitness is -0.645 ± 0.079.

Consider DATRCSICQKTGEVLHEVSNGSVVHRLCSDSIFSKFRANK, for which the abundance fitness is -0.587 ± 0.19.

As to DATRCSICQKTGEVLHEVSNGSVVHRLCSDSRFSKFRANK, the abundance fitness is -0.832 ± 0.071.

Regarding DATRCSICQKTGEVLHEVSNGSVVHRLCSDSPFSKFRANK, the abundance fitness is -0.763 ± 0.13.

As for DATRCSICQKTGEVLHEVSNGSVVHRLCSDSKFSKFRANK, the abundance fitness is -0.727 ± 0.097.

Take DATRCSICQKTGEVLHEVSNGSVVHRLCSDSQFSKFRANK: the abundance fitness is -0.345 ± 0.079.

For DATRCSICQKTGEVLHEVSNGSVVHRLCSDSNFSKFRANK, the abundance fitness is -0.808 ± 0.1.

On to DATRCSICQKTGEVLHEVSNGSVVHRLCSDSLFSKFRANK, for which the abundance fitness is -0.676 ± 0.076.

DATRCSICQKTGEVLHEVSNGSVVHRLCSDSFFSKFRANK: the abundance fitness was -0.968 ± 0.16.

Regarding DATRCSICQKTGEVLHEVSNGSVVHRLCSDSGFSKFRANK, the abundance fitness was -0.576 ± 0.054.

With DATRCSICQKTGEVLHEVSNGSVVHRLCSDSVFSKFRANK, the abundance fitness was -0.742 ± 0.068.

For the variant DATRCSICQKTGEVLHEVSNGSVVHRLCSDSDFSKFRANK, the abundance fitness was -0.301 ± 0.1.

For the variant DATRCSICQKTGEVLHEVSNGSVVHRLCSDSHFSKFRANK, the abundance fitness is -0.59 ± 0.11.

With DATRCSICQKTGEVLHEVSNGSVVHRLCSDSTFSKFRANK, the abundance fitness is -0.565 ± 0.1.
